Source: PMC6572788
One block for each binder: values may come before it.

Tests used:
[1] = target: wt-CFTR fused to enhanced green fluorescent protein (His10-SUMO*-CFTR^FLAG-EGFP), PKA phosphorylated (human) (UniProt P13569)
[2] = target: wt-CFTR fused to enhanced green fluorescent protein (His10-SUMO*-CFTR^FLAG-EGFP), PKA phosphorylated (human) (UniProt P13569); remark: listed apart in the source
[3] = target: stabilized version of human CFTR (stab-CFTR: 2PT/ΔRI/R1048A_1172X) (human) (UniProt P13569)
Chain of stabilized version of human CFTR (stab-CFTR: 2PT/ΔRI/R1048A_1172X) (human) (P13569 other isoform, or with tags, fused parts or gaps, stated change not applied): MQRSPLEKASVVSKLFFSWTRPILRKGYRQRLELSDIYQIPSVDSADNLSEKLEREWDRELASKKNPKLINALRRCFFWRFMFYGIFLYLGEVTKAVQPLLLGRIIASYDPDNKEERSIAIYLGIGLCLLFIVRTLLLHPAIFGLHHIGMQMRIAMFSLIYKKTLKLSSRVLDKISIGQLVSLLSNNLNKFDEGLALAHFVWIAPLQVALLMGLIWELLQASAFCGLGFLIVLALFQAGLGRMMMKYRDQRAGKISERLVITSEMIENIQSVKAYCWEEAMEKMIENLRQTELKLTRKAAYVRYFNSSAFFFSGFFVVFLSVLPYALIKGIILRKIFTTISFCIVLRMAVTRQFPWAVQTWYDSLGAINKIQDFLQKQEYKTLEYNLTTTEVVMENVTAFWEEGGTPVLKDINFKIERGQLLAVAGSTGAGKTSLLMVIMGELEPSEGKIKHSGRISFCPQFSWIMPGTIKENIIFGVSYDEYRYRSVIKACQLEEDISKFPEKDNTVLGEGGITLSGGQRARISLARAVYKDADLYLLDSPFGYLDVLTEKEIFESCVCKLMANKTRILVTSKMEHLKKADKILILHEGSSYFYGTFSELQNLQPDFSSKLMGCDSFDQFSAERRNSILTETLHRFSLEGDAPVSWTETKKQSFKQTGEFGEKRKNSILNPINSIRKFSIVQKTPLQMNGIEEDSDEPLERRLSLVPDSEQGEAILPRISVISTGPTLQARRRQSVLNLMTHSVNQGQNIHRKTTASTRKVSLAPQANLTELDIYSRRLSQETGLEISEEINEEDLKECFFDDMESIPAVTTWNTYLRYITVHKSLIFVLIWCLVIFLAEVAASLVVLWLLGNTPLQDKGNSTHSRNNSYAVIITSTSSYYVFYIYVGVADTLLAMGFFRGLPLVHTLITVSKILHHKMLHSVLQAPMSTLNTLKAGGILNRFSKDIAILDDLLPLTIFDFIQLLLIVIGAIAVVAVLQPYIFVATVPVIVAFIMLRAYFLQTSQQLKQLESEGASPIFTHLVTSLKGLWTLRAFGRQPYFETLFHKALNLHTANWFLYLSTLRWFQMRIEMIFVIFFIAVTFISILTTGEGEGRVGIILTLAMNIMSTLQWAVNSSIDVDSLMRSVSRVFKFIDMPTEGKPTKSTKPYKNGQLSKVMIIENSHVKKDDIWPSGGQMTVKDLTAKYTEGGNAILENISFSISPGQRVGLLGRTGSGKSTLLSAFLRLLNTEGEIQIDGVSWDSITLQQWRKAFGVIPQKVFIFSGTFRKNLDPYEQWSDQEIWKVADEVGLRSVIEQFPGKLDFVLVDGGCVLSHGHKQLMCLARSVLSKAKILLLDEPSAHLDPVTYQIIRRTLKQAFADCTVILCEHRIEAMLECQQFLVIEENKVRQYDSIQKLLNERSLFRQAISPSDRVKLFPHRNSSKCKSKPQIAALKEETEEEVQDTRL

Chain of wt-CFTR fused to enhanced green fluorescent protein (His10-SUMO*-CFTR^FLAG-EGFP), PKA phosphorylated (human) (P13569 whole entry, the tested form may be a part): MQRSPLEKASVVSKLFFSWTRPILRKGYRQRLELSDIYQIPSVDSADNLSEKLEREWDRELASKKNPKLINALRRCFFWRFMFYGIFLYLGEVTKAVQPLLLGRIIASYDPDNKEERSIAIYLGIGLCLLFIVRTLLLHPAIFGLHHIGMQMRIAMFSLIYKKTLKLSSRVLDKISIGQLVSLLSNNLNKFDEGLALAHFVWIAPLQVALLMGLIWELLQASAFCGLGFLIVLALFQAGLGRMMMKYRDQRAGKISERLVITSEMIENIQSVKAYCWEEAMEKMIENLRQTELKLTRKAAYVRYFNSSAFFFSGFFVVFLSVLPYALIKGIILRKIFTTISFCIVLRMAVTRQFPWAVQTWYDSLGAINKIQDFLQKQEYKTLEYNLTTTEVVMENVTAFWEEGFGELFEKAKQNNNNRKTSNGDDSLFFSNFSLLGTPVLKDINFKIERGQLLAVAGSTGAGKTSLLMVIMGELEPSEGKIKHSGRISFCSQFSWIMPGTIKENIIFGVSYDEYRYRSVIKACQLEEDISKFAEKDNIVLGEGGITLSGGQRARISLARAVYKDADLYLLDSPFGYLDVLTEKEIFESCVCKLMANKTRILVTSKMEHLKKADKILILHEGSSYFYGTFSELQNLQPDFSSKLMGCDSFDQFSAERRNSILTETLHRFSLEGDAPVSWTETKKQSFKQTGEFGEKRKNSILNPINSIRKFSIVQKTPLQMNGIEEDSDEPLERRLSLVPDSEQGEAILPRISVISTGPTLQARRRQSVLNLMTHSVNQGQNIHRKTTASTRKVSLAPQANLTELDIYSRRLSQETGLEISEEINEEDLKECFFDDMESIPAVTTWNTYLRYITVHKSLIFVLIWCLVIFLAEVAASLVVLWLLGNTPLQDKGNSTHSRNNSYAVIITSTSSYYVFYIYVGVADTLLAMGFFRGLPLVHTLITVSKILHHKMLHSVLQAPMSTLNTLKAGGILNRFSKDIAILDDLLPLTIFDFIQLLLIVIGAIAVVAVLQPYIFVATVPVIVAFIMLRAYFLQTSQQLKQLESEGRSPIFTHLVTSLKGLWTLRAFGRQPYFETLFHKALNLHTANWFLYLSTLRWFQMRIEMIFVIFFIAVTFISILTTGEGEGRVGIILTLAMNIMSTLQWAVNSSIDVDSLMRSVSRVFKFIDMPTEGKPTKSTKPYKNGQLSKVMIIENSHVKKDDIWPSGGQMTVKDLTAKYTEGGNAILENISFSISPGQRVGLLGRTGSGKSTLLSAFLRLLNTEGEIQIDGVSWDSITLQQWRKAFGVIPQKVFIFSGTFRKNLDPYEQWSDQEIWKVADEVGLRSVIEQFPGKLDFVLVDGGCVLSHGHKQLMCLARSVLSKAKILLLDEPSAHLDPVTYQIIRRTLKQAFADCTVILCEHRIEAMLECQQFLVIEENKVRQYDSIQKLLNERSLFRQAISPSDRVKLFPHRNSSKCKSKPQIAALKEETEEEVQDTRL

ATPase activity of PKA-phosphorylated wt-CFTR (25 nM) with 1 µM nanobody, percent of the activity without nanobody [1]: 30%
B2: nanobody T27 (VHH)
VHH: QVQLQESGGGLEQPGGSLRLSCATSGVIFGINAMGWYRQAPGKQRELVATFTSGGSTNYADFVEGRFTISRDNAKNTVYLQMNGLRPEDTAVYYCHATVVVSRYGLTYDYWGQGTQVTVSS

thermostabilization of stab-CFTR by nanoDSF (~1:2 molar ratio) [3]: 8 °C
B5: nanobody T4 (VHH)
VHH: QVQLQESGGGLVQAGGSLRLSCAASGSTFAIIAMGWYRQAPGKQRELVAVISTGDTRYADSVKGRFTISRDNAKNTVYLQMDSLRPEDTAVYYCNAAVQVRDYRNYWGQGTQVTVSS

Further lines, the binder ahead of its results:

B1: nanobody D12 (VHH)
VHH: QVQLQESGGGLVQAGSSLRLACAATGSIRSINNMGWYRQAPGKQRGMVAIITRVGNTDYADSVKGRFTISRDNAKNTVYLQMNSLKPEDTATYYCHAEITEQSRPFYLTDDYWGQGTQVTVSS
ATPase activity of PKA-phosphorylated wt-CFTR (25 nM) with 1 µM nanobody, percent of the activity without nanobody [1]: 50%
shift of the temperature of thermal inactivation of the ATPase activity of wt-CFTR (30 min heat challenge) [2]: 7 °C

B3: nanobody T2a (VHH)
VHH: QVQLQESGGGLVQAGGSLRLSCAASGSIFRIDAMGWYRQAPGKQRELVAHSTSGGSTDYADSVKGRFTISRDNAKNTVYLQMNSLKPEDTAVYYCNADVRTRWYASNNYWGQGTQVTVSS
thermostabilization of stab-CFTR by nanoDSF (~1:2 molar ratio) [3]: 8 °C
ATPase activity of PKA-phosphorylated wt-CFTR (25 nM) with 1 µM nanobody, percent of the activity without nanobody [1]: 50%

B4: nanobody G3a (VHH)
VHH: QVQLQESGGGLVQAGGSLRLSCTASGRAFSWYVMGWFRQAPGKEREFVATVSGNGSRRDYADSVKGRFTISRDNAKNTVYLQMNSLKPEDTAVYYCAASSTYYYTDPEKYDYWGQGTQVTVSS
shift of the temperature of thermal inactivation of the ATPase activity of wt-CFTR (30 min heat challenge; 15 µM G3a) [2]: 3.1 °C
